According to US20110195494A1 (Boehringer Ingelheim, published 2011):
Values joined by “and” are separate entries in the source; they are usually repeats but may differ in a detail not shown here. Equal values may be shown once. Read-outs that look alike come from different tables or passages of the source.

Key:
human DLL1 (Alexis) [1] = biological target: T1, human DLL1 (Alexis) (human, UniProt O00548 18-545, limits assumed); assay: binding ELISA, coated rhDLL1
T1 construct: also called hDLL1; rhDLL1
T1 sequence (looked up): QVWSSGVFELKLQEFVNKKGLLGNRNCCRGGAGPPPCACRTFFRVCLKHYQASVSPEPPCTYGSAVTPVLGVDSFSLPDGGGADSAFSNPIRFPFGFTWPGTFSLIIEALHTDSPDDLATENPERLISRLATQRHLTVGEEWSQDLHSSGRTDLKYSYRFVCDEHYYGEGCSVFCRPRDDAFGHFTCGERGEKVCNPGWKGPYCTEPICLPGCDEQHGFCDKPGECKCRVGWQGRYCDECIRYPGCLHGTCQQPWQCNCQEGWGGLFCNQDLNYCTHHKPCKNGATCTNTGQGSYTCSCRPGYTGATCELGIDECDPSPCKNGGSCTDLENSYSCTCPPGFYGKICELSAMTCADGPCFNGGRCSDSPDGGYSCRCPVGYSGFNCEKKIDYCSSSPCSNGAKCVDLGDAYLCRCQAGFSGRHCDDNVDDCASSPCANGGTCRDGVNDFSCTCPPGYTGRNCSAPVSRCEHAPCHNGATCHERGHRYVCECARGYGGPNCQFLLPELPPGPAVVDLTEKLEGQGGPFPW

human Jagged-1 (Alexis) [2] = biological target: T2, human Jagged-1 (Alexis) (human, UniProt P78504 34-1067, limits assumed); assay: binding ELISA, coated rhJagged-1
T2 construct: also called hJag-1; hJAG1

[3] = biological target: T3, full length human DLL4 on overexpressing CHO or HEK293 cells (human, UniProt Q9NR61 27-685); assay: FMAT competition: labelled hNotch1/Fc on CHO-hDLL4 cells
T3 construct: also called CHO-hDLL4; HEK293-hDII4
T3 sequence (Q9NR61 27-685 limits assumed): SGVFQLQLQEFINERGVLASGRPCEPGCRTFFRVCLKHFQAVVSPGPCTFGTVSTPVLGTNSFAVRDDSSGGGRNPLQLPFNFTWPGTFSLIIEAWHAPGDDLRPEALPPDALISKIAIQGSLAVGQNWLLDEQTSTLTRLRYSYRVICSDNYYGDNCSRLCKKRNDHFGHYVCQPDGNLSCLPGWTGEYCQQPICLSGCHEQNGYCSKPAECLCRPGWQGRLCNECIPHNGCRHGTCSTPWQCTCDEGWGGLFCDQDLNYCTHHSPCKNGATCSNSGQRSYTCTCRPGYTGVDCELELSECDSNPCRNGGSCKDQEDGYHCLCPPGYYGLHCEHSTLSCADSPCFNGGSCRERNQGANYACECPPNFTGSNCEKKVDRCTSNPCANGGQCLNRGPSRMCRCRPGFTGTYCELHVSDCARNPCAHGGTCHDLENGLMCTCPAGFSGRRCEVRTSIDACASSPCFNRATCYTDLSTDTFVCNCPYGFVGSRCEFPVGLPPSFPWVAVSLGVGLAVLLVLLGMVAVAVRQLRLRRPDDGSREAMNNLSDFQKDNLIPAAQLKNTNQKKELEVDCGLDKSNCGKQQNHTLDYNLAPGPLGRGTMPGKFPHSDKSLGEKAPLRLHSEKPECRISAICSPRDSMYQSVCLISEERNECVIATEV
Text: (§1) All calculations are based on the FL1 total signal which comprises the average of the fluorescence per well times the number of counts per well.

[4] = biological target: T4, full length mouse DLL4 on overexpressing CHO or HEK293 cells (mouse, UniProt Q9JI71 27-686); assay: FMAT competition: labelled hNotch1/Fc on CHO-mDLL4 cells
T4 construct: whole, on cells; also called CHO-mDLL4; mDLL4
T4 sequence (Q9JI71 27-686): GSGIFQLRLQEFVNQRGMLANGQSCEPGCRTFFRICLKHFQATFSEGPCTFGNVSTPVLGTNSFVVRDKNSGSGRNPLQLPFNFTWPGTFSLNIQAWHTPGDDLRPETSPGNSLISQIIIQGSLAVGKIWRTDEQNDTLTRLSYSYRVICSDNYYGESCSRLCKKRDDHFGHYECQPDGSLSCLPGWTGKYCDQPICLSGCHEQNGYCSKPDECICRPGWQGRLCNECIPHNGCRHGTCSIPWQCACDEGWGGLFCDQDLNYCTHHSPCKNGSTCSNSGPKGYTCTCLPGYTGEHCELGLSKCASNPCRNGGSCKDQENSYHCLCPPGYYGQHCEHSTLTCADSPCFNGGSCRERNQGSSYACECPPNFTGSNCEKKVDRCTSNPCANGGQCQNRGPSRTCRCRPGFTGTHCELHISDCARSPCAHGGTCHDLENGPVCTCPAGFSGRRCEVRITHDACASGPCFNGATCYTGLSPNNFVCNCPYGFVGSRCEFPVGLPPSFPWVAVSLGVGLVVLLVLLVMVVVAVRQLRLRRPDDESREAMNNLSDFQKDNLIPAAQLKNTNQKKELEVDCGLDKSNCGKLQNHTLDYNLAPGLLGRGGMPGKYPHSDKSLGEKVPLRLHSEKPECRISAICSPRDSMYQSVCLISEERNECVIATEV
Text: as §1

[5] = biological target: recombinant human DLL4, C-terminally His-tagged extracellular domain (R&D Systems) (human) (UniProt Q9NR61); assay: hDLL4/hNotch1-Fc competition ELISA
Chain of recombinant human DLL4, C-terminally His-tagged extracellular domain (R&D Systems) (human) (Q9NR61 25-522): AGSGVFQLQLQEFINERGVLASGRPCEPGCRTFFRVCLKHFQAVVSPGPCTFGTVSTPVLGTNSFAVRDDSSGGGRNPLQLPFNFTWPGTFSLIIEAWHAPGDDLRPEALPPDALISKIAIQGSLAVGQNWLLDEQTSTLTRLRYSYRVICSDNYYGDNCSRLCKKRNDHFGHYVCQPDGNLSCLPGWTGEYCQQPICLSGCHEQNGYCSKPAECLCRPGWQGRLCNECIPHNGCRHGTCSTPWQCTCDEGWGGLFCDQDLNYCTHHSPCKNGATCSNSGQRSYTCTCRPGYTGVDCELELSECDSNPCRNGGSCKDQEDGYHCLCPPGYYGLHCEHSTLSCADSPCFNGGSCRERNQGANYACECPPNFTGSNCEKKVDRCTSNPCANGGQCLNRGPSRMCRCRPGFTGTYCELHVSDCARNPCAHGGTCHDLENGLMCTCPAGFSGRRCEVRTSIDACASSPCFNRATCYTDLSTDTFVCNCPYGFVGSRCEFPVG

[6] = biological target: cynomolgus DLL4 on overexpressing cells (cynomolgus (SEQ ID NO: 418 is the rhesus entry, stated 100% identical)); assay: FACS on CHO-cDLL4
Chain of cynomolgus DLL4 on overexpressing cells (cynomolgus (SEQ ID NO: 418 is the rhesus entry, stated 100% identical)) (Q9NR61 other isoform, or with tags, fused parts or gaps limits assumed): as the sequence (Q9NR61 27-685 limits assumed) above, with I12V, T52S, N359S, L413R, N434S counted along it

[7] = biological target: recombinant human DLL4, C-terminally His-tagged extracellular domain (R&D Systems) (human) (UniProt Q9NR61); assay: hDLL4/hNotch1-Fc competition AlphaScreen
[8] = biological target: full length mouse DLL4 on overexpressing CHO or HEK293 cells (mouse) (UniProt Q9JI71); assay: FMAT, hNotch1/Fc on CHO-mDLL4
Chain of full length mouse DLL4 on overexpressing CHO or HEK293 cells (mouse) (Q9JI71 27-686): as the sequence (Q9JI71 27-686) above

[9] = biological target: full length human DLL4 on overexpressing CHO or HEK293 cells (human) (UniProt Q9NR61); assay: FMAT, hNotch1/Fc on CHO-hDLL4
Chain of full length human DLL4 on overexpressing CHO or HEK293 cells (human) (Q9NR61 27-685 limits assumed): as the sequence (Q9NR61 27-685 limits assumed) above

[10] = biological target: recombinant human DLL4, C-terminally His-tagged extracellular domain (R&D Systems) (human) (UniProt Q9NR61); assay: SPR Biacore T100, hDLL4 on chip
[11] = biological target: recombinant human DLL4, C-terminally His-tagged extracellular domain (R&D Systems) (human) (UniProt Q9NR61); assay: SPR, rhDLL4
[12] = biological target: full length human DLL4 on overexpressing CHO or HEK293 cells (human) (UniProt Q9NR61); assay: FMAT, hNotch1/Fc on CHO-hDLL4; remark: listed apart in the source
[13] = biological target: recombinant human DLL4, C-terminally His-tagged extracellular domain (R&D Systems) (human) (UniProt Q9NR61); assay: competition ELISA, summary Table 21
[14] = biological target: recombinant human DLL4, C-terminally His-tagged extracellular domain (R&D Systems) (human) (UniProt Q9NR61); assay: binding ELISA, coated rhDLL4
[15] = biological target: recombinant human DLL4, C-terminally His-tagged extracellular domain (R&D Systems) (human) (UniProt Q9NR61); assay: hDLL4/hNotch1-Fc competition ELISA; remark: listed apart in the source
[16] = biological target: full length human DLL4 on overexpressing CHO or HEK293 cells (human) (UniProt Q9NR61); assay: FMAT competition, hDLL4 on cells, summary Table 21
[17] = biological target: full length human DLL4 on overexpressing CHO or HEK293 cells (human) (UniProt Q9NR61); assay: FACS on CHO-hDLL4
[18] = biological target: recombinant human DLL4, C-terminally His-tagged extracellular domain (R&D Systems) (human) (UniProt Q9NR61); assay: affinity on hDLL4, summary Table 21 (method not named there)
[19] = biological target: recombinant mouse DLL4, C-terminally His-tagged extracellular domain (R&D Systems) (mouse) (UniProt Q9JI71); assay: binding ELISA, coated rmDLL4
Chain of recombinant mouse DLL4, C-terminally His-tagged extracellular domain (R&D Systems) (mouse) (Q9JI71 27-532): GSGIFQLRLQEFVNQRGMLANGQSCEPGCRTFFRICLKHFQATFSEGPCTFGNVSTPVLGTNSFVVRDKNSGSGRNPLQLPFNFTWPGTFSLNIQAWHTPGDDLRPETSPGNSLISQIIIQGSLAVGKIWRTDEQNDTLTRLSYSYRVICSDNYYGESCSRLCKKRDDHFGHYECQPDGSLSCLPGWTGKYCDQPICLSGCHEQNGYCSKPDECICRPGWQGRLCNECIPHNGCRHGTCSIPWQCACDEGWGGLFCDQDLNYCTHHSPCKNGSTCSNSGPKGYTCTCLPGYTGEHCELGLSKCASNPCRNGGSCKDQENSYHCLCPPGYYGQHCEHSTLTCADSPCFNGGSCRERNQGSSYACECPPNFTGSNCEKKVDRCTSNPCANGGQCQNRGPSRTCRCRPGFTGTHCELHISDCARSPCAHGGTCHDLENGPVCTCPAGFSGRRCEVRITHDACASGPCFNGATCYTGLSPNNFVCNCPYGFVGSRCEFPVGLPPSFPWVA

[20] = biological target: full length mouse DLL4 on overexpressing CHO or HEK293 cells (mouse) (UniProt Q9JI71); assay: FACS on CHO-mDLL4
[21] = biological target: full length mouse DLL4 on overexpressing CHO or HEK293 cells (mouse) (UniProt Q9JI71); assay: FMAT competition, mDLL4 on cells, summary Table 21
[22] = biological target: full length human DLL4 on overexpressing CHO or HEK293 cells (human) (UniProt Q9NR61); assay: cell-based or functional assay
[23] = biological target: recombinant human DLL4, C-terminally His-tagged extracellular domain (R&D Systems) (human) (UniProt Q9NR61); assay: cell-based or functional assay
[24] = biological target: full length mouse DLL4 on overexpressing CHO or HEK293 cells (mouse) (UniProt Q9JI71); assay: FMAT, hNotch1/Fc on CHO-mDLL4; remark: listed apart in the source
human Jagged-1 (Alexis) [25] = biological target: T2, human Jagged-1 (Alexis); assay: binding ELISA, coated rhJagged-1; remark: listed apart in the source
[26] = biological target: T5, recombinant human DLL4, C-terminally His-tagged extracellular domain (R&D Systems) (human, UniProt Q9NR61 25-522, biotinylated where used in competition ELISA, AlphaScreen and on SA chips); assay: binding ELISA, coated rhDLL4
T5 construct: also called rhDLL4; hDLL4; not shown: C-terminal His tag
T5 sequence (Q9NR61 25-522): as the sequence (Q9NR61 25-522) above

human DLL1 (Alexis) [27] = biological target: T1, human DLL1 (Alexis); assay: binding ELISA, coated rhDLL1; remark: listed apart in the source

B1: DLLBII015 (VHH)
VHH: EVQLVESGGGLVQPGGSLRLSCAASGFTIGSYDMSWVRRSPGKGPEWVSAINSGGGSTYYADYVKGRFTISRDNAKNTLYLQMNSLKPEDTAVYYCAADRYIWARQGEYWGAYAYDYWGQGTQVTVSS
notes: not shown: C-terminal c-myc tag and (His)6 tag
B1: no binding (tested: 1e-6 M) (human DLL1 (Alexis) [1]); no binding (tested: 1e-6 M) (human Jagged-1 (Alexis) [2]).

B2: DLLBII133A09 (VHH)
VHH: EVQLVESGGGLVQPGGSLRLSCAASGFTFGSYDMSWVRRSPGKGPEWVSAINSGGGSTYYADYVKGRFTISRDNAKNTLYLQMNSLKPEDTAVYYCAADRYIWARQGEYWGAYAYDYWGQGTQVTVSS
notes: as for B1
B2: no binding (tested: 1e-6 M) (human DLL1 (Alexis) [1]); no binding (tested: 1e-6 M) (human Jagged-1 (Alexis) [2]).

B3: DLLBII136C07 (VHH)
VHH: EVQLVESGGGLVQPGGSLRLSCAASGFTFGSYDMSWVRRSPGKGPEWVSSINSGGGSTYYADYVKGRFTISRDNAKNTLYLQMNSLKPEDTAVYYCAADRYIWARQGEYWGAYEYDYWGQGTQVTVSS
notes: as for B1
B3: no binding (tested: 1e-6 M) (human DLL1 (Alexis) [1]); no binding (tested: 1e-6 M) (human Jagged-1 (Alexis) [2]).

B4: DLLBII133G05 (VHH)
VHH: EVQLVESGGGLVQPGGSLRLSCAASGFTFGSYDMSWVRRSPGKGPEWVSAINSGGGSTYYTDYVKGRFTISRDNAKNTLYLQMNSLKPEDTAVYYCAADRYIWARQGEYWGAYAYDYWGQGTQVTVSS
notes: as for B1
B4: no binding (tested: 1e-6 M) (human DLL1 (Alexis) [1]); no binding (tested: 1e-6 M) (human Jagged-1 (Alexis) [2]).

B5: 78B03 (VHH)
VHH: EVQLVESGGGLVQAGGSLRLSCAASGRTFSNYIMGWFRQAPGKEREFVAGISRYGDYTAYADSVKGRFTISRDNVKNTVYLRMNSLKPDDTAVYYCAANEGYCSGYGCYEDSGQYDYWGQGTQVTVSS
notes: also called DLLBII78B03
B5: binds [3]; binds [4].

B6: anti-DLL4 Fab fragment (of the Genentech anti-DLL4 mAb of US 2008/0014196) (Fab)
heavy: EVQLVESGGGLVQPGGSLRLSCAASGFTFTDNWISWVRQAPGKGLEWVGYISPNSGFTYYADSVKGRFTISADTSKNTAYLQMNSLRAEDTAVYYCARDNFGGYFDYWGQGTLVTVSS
light: DIQMTQSPSSLSASVGDRVTITCRASQDVSTAVAWYQQKPGKAPKLLIYSASFLYSGVPSRFSGSGSGTDFTLTISSLQPEDFATTYYCQQSYTGTVTFGQGTKVEIK
B6 showed an IC50 [5] of 0.7 nM, an EC50 [6] of 2.5 nM and an IC50 [7] of 0.3 nM. For the same binder, the IC50 [8] was 3 nM and 1.6 nM, the IC50 [9] was 5.4 nM and the Kd [10] was 1.5 nM. It also gave a koff [10] of 0.00034 s⁻¹, a kon [10] of 230000 M⁻¹ s⁻¹ and a Kd [11] of 1.5 nM. The koff [11] was 0.00034 s⁻¹, the kon [11] was 230000 M⁻¹ s⁻¹ and the IC50 [12] was 5.5 nM and 3.4 nM. The IC50 [13] was 1.5 nM and 1.2 nM, the EC50 [14] was 3 nM and the EC50 (read off the curve) [14] was 0.8 nM. For the same binder, the IC50 [15] was 1.5 nM and 1.2 nM, the IC50 [16] was 5.5 nM and 3.4 nM and the EC50 [17] was 5.6 nM. It also gave a Kd [18] of 1.5 nM, an EC50 [19] of 3 nM and an EC50 (read off the curve) [19] of 0.9 nM. For the same binder, the EC50 [20] was 2.1 nM, the IC50 [21] was 3 nM and 1.6 nM and the IC50, DLL4/Notch1 reporter assay [22] was 133 nM. The IC50 (nM) (experiment 1), DLL4 proliferation assay (HUVEC) [23] was 4.9 nM, the IC50 (nM) (experiment 2), DLL4 proliferation assay (HUVEC) [23] was 5.6 nM and the IC50 [24] was 2.3 nM.

B7: 83G04 (VHH)
VHH: EVQLVESGGGLVKPGGSLRLSCAASGRTLYIMGWYRQAPGKEREFVAGISRYGDITYAADSVKGRFTISRDSVKNTVYLRMNSLKPDDTAVYYCAANGGYCSGYGCYEDSGQYDYWGQGTQVTVSS
notes: also called DLLBII83G04
With B7 the binding result [3] was “binds” and the “IC50 (read off the curve)” value [4] was ~40 nM.

B8: DLLBII129B05 (VHH)
VHH: EVQLVESGGGLVQAGGSLRLSCAASGRTFSSYAMAWYRQAPGKEREYVAAIRWSGGTAYYADSVQGRFTISRDNAKNTVYLQMNSLKPEDTAVYYCANRAPDTRLAPYEYDHWGQGTQVTVSS
notes: as for B1
For B8, the binding result (human Jagged-1 (Alexis) [25]) was “no binding (tested: 1e-6 M)”, the “EC50 (read off the curve)” value [26] was ~0.6 nM and the binding result (human DLL1 (Alexis) [27]) was “no binding (tested: 1e-6 M)”.

B9: DLLBII129D08 (VHH)
VHH: EVQLVESGGGLVQAGGSLRLSCAASGRTFSSYAMAWYRQAPGKEREYVAAIRWSGGTAYYADSVQGRFTISRDNAKNTVYLQMNSLKPEDTAVYYCANRAPDTRLEPYLYDYWGQGTQVTVSS
notes: as for B1
B9 was tested, and the binding result (human Jagged-1 (Alexis) [25]) was “no binding (tested: 1e-6 M)”, the “EC50 (read off the curve)” value [26] was ~0.6 nM and the binding result (human DLL1 (Alexis) [27]) was “no binding (tested: 1e-6 M)”.

B10: DLLBII129E11 (VHH)
VHH: EVQLVESGGGLVQAGGSLRLSCAASGRTFSSYAMAWYRQAPGKEREYVAAIRWSGGTAYYADSVQGRFTISRDNAKNTVYLQMNSLKPEDTAVYYCANRAPDTRLRPYLYDYWGQGTQVTVSS
notes: as for B1
In the case of B10, the binding result (human Jagged-1 (Alexis) [25]) is reported as “no binding (tested: 1e-6 M)”, the “EC50 (read off the curve)” value [26] is reported as ~0.6 nM and the binding result (human DLL1 (Alexis) [27]) is reported as “no binding (tested: 1e-6 M)”.
